Results as given in PMC3751566.
Where a chain is given by its changes, count along the chain named.

B1: Protein-tyrosine phosphatase 1B wild type [not stated] / Munc18c (endogenous) [mouse (endogenous in 3T3-L1 and PTP1B KO adipocytes)] (parent)
chain 1: MEMEKEFEQIDKSGSWAAIYQDIRHEASDFPCRVAKLPKNKNRNRYRDVSPFDHSRIKLHQEDNDYINASLIKMEEAQRSYILTQGPLPNTCGHFWEMVWEQKSRGVVMLNRVMEKGSLKCAQYWPQKEEKEMIFEDTNLKLTLISEDIKSYYTVRQLELENLTTQETREILHFHYTTWPDFGVPESPASFLNFLFKVRESGSLSPEHGPVVVHCSAGIGRSGTFCLADTCLLLMDKRKDPSSVDIKKVLLEMRKFRMGLIQTADQLRFSYLAVIEGAKFIMGDSSVQDQWKELSHEDLEPPPEHIPPPPRPPKRILEPHNGKCREFFPNHQWVKEETQEDKDCPIKEEKGSPLNAAPYGIESMSQDTEVRSRVVGGSLRGAQAASPAKGEPSLPEKDEDHALSYWKPFLVNMCVATVLTAGAYLCYRFLFNSNT
chain 2: MAPPVSERGLKSVVWRKIKTAVFDDCRKEGEWKIMLLDEFTTKLLSSCCKMTDLLEEGITVIENIYKNREPVRQMKALYFISPTPKSVDCFLRDFGSKSEKKYKAAYIYFTDFCPDSLFNKIKASCSKSIRRCKEINISFIPQESQVYTLDVPDAFYYCYSPDPSNASRKEVVMEAMAEQIVTVCATLDENPGVRYKSKPLDNASKLAQLVEKKLEDYYKIDEKGLIKGKTQSQLLIIDRGFDPVSTVLHELTFQAMAYDLLPIENDTYKYKTDGKEKEAVLEEDDDLWVRVRHRHIAVVLEEIPKLMKEISSTKKATEGKTSLSALTQLMKKMPHFRKQISKQVVHLNLAEDCMNKFKLNIEKLCKTEQDLALGTDAEGQRVKDSMLVLLPVLLNKNHDNCDKIRAVLLYIFGINGTTEENLDRLIHNVKIEDDSDMIRNWSHLGVPIVPPSQQAKPLRKDRSAEETFQLSRWTPFIKDIMEDAIDNRLDSKEWPYCSRCPAVWNGSGAVSARQKPRTNYLELDRKNGSRLIIFVIGGITYSEMRCAYEVSQAHKSCEVIIGSTHILTPRKLLDDIKMLNKSKDKVSFKDE
B2: Munc18c (endogenous) [mouse (endogenous in 3T3-L1 and PTP1B KO adipocytes)] / Protein-tyrosine phosphatase 1B substrate-trapping [not stated] (parent)
chain 1: B1 chain 2
chain 2: B1 chain 1 with D181A

Variants of: B1
Assay: co-immunoprecipitation (IP PTP1B with FG6, IB Munc18c), band quantification
Conditions: with Munc18c (endogenous) [mouse (endogenous in 3T3-L1 and PTP1B KO adipocytes)]; 3T3-L1 WT adipocytes, + insulin + Vanadate; read off a plot

response (relative to WT) | Variant
0.83 | chain 1 D181A

Same assay, conditions: with Munc18c (endogenous) [mouse (endogenous in 3T3-L1 and PTP1B KO adipocytes)]; 3T3-L1 WT adipocytes, + insulin, NP40 lysis; read off a plot

response (relative to WT) | Variant
2.2 | chain 1 D181A

Same assay, conditions: with Munc18c (endogenous) [mouse (endogenous in 3T3-L1 and PTP1B KO adipocytes)]; 3T3-L1 WT adipocytes, - insulin, NP40 lysis; read off a plot

response (relative to WT) | Variant
1.4 | chain 1 D181A

Variants of: B2
Assay: as above
Conditions: with Protein-tyrosine phosphatase 1B substrate-trapping mutant D181A; Munc18c knockdown 3T3-L1 cells reconstituted with Y218/219F, transfected with PTP1B D/A, + insulin; read off a plot

response (relative to WT) | Variant
0.87 | chain 1 MAPPVSERGLKSVVWRKIKTAVFDDCRKEGEWKIMLLDEFTTKLLSSCCKMTDLLEEGITVIENIYKNREPVRQMKALYFISPTPKSVDCFLRDFGSKSEKKYKAAYIYFTDFCPDSLFNKIKASCSKSIRRCKEINISFIPQESQVYTLDVPDAFYYCYSPDPSNASRKEVVMEAMAEQIVTVCATLDENPGVRYKSKPLDNASKLAQLVEKKLEDFFKIDEKGLIKGKTQSQLLIIDRGFDPVSTVLHELTFQAMAYDLLPIENDTYKYKTDGKEKEAVLEEDDDLWVRVRHRHIAVVLEEIPKLMKEISSTKKATEGKTSLSALTQLMKKMPHFRKQISKQVVHLNLAEDCMNKFKLNIEKLCKTEQDLALGTDAEGQRVKDSMLVLLPVLLNKNHDNCDKIRAVLLYIFGINGTTEENLDRLIHNVKIEDDSDMIRNWSHLGVPIVPPSQQAKPLRKDRSAEETFQLSRWTPFIKDIMEDAIDNRLDSKEWPYCSRCPAVWNGSGAVSARQKPRTNYLELDRKNGSRLIIFVIGGITYSEMRCAYEVSQAHKSCEVIIGSTHILTPRKLLDDIKMLNKSKDKVSFKDE [chain 1 Y218F Y219F]

Same assay, conditions: with Protein-tyrosine phosphatase 1B substrate-trapping mutant D181A; Munc18c knockdown 3T3-L1 cells reconstituted with Y218/219F, transfected with PTP1B D/A, - insulin; read off a plot

response (relative to WT) | Variant
0.4 | chain 1 MAPPVSERGLKSVVWRKIKTAVFDDCRKEGEWKIMLLDEFTTKLLSSCCKMTDLLEEGITVIENIYKNREPVRQMKALYFISPTPKSVDCFLRDFGSKSEKKYKAAYIYFTDFCPDSLFNKIKASCSKSIRRCKEINISFIPQESQVYTLDVPDAFYYCYSPDPSNASRKEVVMEAMAEQIVTVCATLDENPGVRYKSKPLDNASKLAQLVEKKLEDFFKIDEKGLIKGKTQSQLLIIDRGFDPVSTVLHELTFQAMAYDLLPIENDTYKYKTDGKEKEAVLEEDDDLWVRVRHRHIAVVLEEIPKLMKEISSTKKATEGKTSLSALTQLMKKMPHFRKQISKQVVHLNLAEDCMNKFKLNIEKLCKTEQDLALGTDAEGQRVKDSMLVLLPVLLNKNHDNCDKIRAVLLYIFGINGTTEENLDRLIHNVKIEDDSDMIRNWSHLGVPIVPPSQQAKPLRKDRSAEETFQLSRWTPFIKDIMEDAIDNRLDSKEWPYCSRCPAVWNGSGAVSARQKPRTNYLELDRKNGSRLIIFVIGGITYSEMRCAYEVSQAHKSCEVIIGSTHILTPRKLLDDIKMLNKSKDKVSFKDE [chain 1 Y218F Y219F]

Same assay, conditions: with Protein-tyrosine phosphatase 1B substrate-trapping mutant D181A; Munc18c knockdown 3T3-L1 cells reconstituted with Y521F, transfected with PTP1B D/A, + insulin; read off a plot

response (relative to WT) | Variant
0.93 | chain 1 MAPPVSERGLKSVVWRKIKTAVFDDCRKEGEWKIMLLDEFTTKLLSSCCKMTDLLEEGITVIENIYKNREPVRQMKALYFISPTPKSVDCFLRDFGSKSEKKYKAAYIYFTDFCPDSLFNKIKASCSKSIRRCKEINISFIPQESQVYTLDVPDAFYYCYSPDPSNASRKEVVMEAMAEQIVTVCATLDENPGVRYKSKPLDNASKLAQLVEKKLEDYYKIDEKGLIKGKTQSQLLIIDRGFDPVSTVLHELTFQAMAYDLLPIENDTYKYKTDGKEKEAVLEEDDDLWVRVRHRHIAVVLEEIPKLMKEISSTKKATEGKTSLSALTQLMKKMPHFRKQISKQVVHLNLAEDCMNKFKLNIEKLCKTEQDLALGTDAEGQRVKDSMLVLLPVLLNKNHDNCDKIRAVLLYIFGINGTTEENLDRLIHNVKIEDDSDMIRNWSHLGVPIVPPSQQAKPLRKDRSAEETFQLSRWTPFIKDIMEDAIDNRLDSKEWPYCSRCPAVWNGSGAVSARQKPRTNFLELDRKNGSRLIIFVIGGITYSEMRCAYEVSQAHKSCEVIIGSTHILTPRKLLDDIKMLNKSKDKVSFKDE [chain 1 Y521F]

Same assay, conditions: with Protein-tyrosine phosphatase 1B substrate-trapping mutant D181A; Munc18c knockdown 3T3-L1 cells reconstituted with Y521F, transfected with PTP1B D/A, - insulin; read off a plot

response (relative to WT) | Variant
0.38 | chain 1 MAPPVSERGLKSVVWRKIKTAVFDDCRKEGEWKIMLLDEFTTKLLSSCCKMTDLLEEGITVIENIYKNREPVRQMKALYFISPTPKSVDCFLRDFGSKSEKKYKAAYIYFTDFCPDSLFNKIKASCSKSIRRCKEINISFIPQESQVYTLDVPDAFYYCYSPDPSNASRKEVVMEAMAEQIVTVCATLDENPGVRYKSKPLDNASKLAQLVEKKLEDYYKIDEKGLIKGKTQSQLLIIDRGFDPVSTVLHELTFQAMAYDLLPIENDTYKYKTDGKEKEAVLEEDDDLWVRVRHRHIAVVLEEIPKLMKEISSTKKATEGKTSLSALTQLMKKMPHFRKQISKQVVHLNLAEDCMNKFKLNIEKLCKTEQDLALGTDAEGQRVKDSMLVLLPVLLNKNHDNCDKIRAVLLYIFGINGTTEENLDRLIHNVKIEDDSDMIRNWSHLGVPIVPPSQQAKPLRKDRSAEETFQLSRWTPFIKDIMEDAIDNRLDSKEWPYCSRCPAVWNGSGAVSARQKPRTNFLELDRKNGSRLIIFVIGGITYSEMRCAYEVSQAHKSCEVIIGSTHILTPRKLLDDIKMLNKSKDKVSFKDE [chain 1 Y521F]
